Measurements as given in paper PMC9484220.
Blank lines part the entries; values can stand above or below the molecule they belong to.

How the values were obtained:
[1] = molecular target: AQP2 protein (eukaryotic expression, purified; Flag-Mcherry tag excised) (UniProt P41181); experiment: SPR; BIAcore T200; AQP2 immobilised on CM5 chip by amine coupling (10 mM NaAc, pH 4.0); MIAC peptide injected; HBS-EP buffer; equilibrium Req values of 5 concentrations fitted to 1:1 binding
[2] = molecular target: chemosynthetic peptide MIAC labeled by CY5; experiment: MST; CY5-labeled MIAC with AQP2 protein, incubated 5 min at room temperature, premium-coated capillaries, Monolith NT.115

Kd [1]: 5.13 µM
Molecule: chemically synthesized MIAC polypeptide

Kd [2]: 6.92 µM
B1: AQP2 protein (eukaryotic expression, purified; Flag-Mcherry tag excised) (natural protein)
chain: MWELRSIAFSRAVFAEFLATLLFVFFGLGSALNWPQALPSVLQIAMAFGLGIGTLVQALGHISGAHINPAVTVACLVGCHVSVLRAAFYVAAQLLGAVAGAALLHEITPADIRGDLAVNALSNSTTAGQAVTVELFLTLQLVLCIFASTDERRGENPGTPALSIGFSVALGHLLGIHYTGCSMNPARSLAPAVVTGKFDDHWVFWIGPLVGAILGSLLYNYVLFPPAKSLSERLAVLKGLEPDTDWEEREVRRRQSVELHSPQSLPRGTKA
